Data on two molecules can be found in patent publication EP2225268B1.

Assay [1] concerns the target Wild-type recombinant human NGAL dimer calibrators treated with DTT (human) (UniProt P80188). Briefly: … sandwich CMIA, capture HYB 211-01, detection acridinium-HYB 211-02; NGAL 50 ng/mL.
For assay [2], the target named is Wild-type recombinant human NGAL dimer expressed in CHO cells (human) (UniProt P80188). Described as above.
Assay [3] addresses Wild-type recombinant human NGAL monomer expressed in CHO cells (human) (UniProt P80188). Described as above.
In assay [4] the target is Native NGAL purchased from Diagnostics Development (Uppsala, Sweden), non-reduced (UniProt P80188). The assay is described as above.
For assay [5], the target named is Wild-type recombinant human NGAL dimer calibrators treated with DTT (human) (UniProt P80188). As to the kind of experiment: … sandwich CMIA, capture HYB 211-01, detection acridinium-HYB 211-02; calibrator C, NGAL 50 ng/mL.
Assay [6] addresses Wild-type recombinant human NGAL dimer expressed in CHO cells (human) (UniProt P80188). The description is as above.
For assay [7], the target named is Wild-type recombinant human NGAL monomer expressed in CHO cells (human) (UniProt P80188). Described as above.
In assay [8] the target is Wild-type recombinant human NGAL dimer calibrators treated with DTT (human) (UniProt P80188). As to the kind of experiment: … sandwich CMIA, capture HYB 211-01, detection acridinium-HYB 211-02; DTT-treated against untreated dimer calibrator; target 1000 ng/mL.
Assay [9] has the same target. Briefly: … sandwich CMIA, capture HYB 211-01, detection acridinium-HYB 211-02; DTT-treated against untreated dimer calibrator; target 5 ng/mL.
Assay [10] shares this target. Briefly: … sandwich CMIA, capture HYB 211-01, detection acridinium-HYB 211-02; curve fit with monomer calibrators; target 250 ng/mL.
The target of assay [11] is Wild-type recombinant human NGAL dimer expressed in CHO cells (human) (UniProt P80188). Described as above.
Assay [12] addresses Wild-type recombinant human NGAL monomer expressed in CHO cells (human) (UniProt P80188). The description is as above.
The target of assay [13] is Wild-type recombinant human NGAL dimer calibrators treated with DTT (human) (UniProt P80188). Briefly: … sandwich CMIA, capture HYB 211-01, detection acridinium-HYB 211-02; calibrator B, NGAL 5 ng/mL.
Assay [14] addresses Wild-type recombinant human NGAL dimer expressed in CHO cells (human) (UniProt P80188). The description is as above.
The target of assay [15] is Wild-type recombinant human NGAL monomer expressed in CHO cells (human) (UniProt P80188). The assay is described as above.
The target of assay [16] is Wild-type recombinant human NGAL dimer calibrators with TCEP in the reaction mixture (human) (UniProt P80188). Briefly: … sandwich CMIA, capture 1-2322-455, detection acridinium-1-903-430; TCEP in reaction; NGAL 50 ng/mL.
For assay [17] the target is unchanged. As to the kind of experiment: … sandwich CMIA, capture 1-2322-455, detection acridinium-1-903-430; TCEP in reaction; curve fit with monomer calibrators; target 600 ng/mL.
The target in assay [18] is Wild-type recombinant human NGAL monomer expressed in CHO cells (human) (UniProt P80188). Briefly: … sandwich CMIA, capture 1-2322-455, detection acridinium-1-903-430; monomer calibrator plus TCEP; curve fit with monomer calibrators; target 250 ng/mL.
The target of assay [19] is Wild-type recombinant human NGAL dimer expressed in CHO cells (human) (UniProt P80188). Briefly: … sandwich CMIA, capture 1-2322-455, detection acridinium-1-903-430; NGAL 250 ng/mL.
Assay [20] has as its target Wild-type recombinant human NGAL monomer expressed in CHO cells (human) (UniProt P80188). The assay is described as above.
The target is the same in assay [21]. Briefly: … sandwich CMIA, capture 1-2322-455, detection acridinium-1-903-430; monomer calibrator plus TCEP; curve fit with monomer calibrators; target 50 ng/mL.
Assay [22] concerns the target Wild-type recombinant human NGAL dimer calibrators with TCEP in the reaction mixture (human) (UniProt P80188). Briefly: … sandwich CMIA, capture 1-2322-455, detection acridinium-1-903-430; TCEP in reaction; curve fit with monomer calibrators; target 5 ng/mL.
In assay [23] the target is Wild-type recombinant human NGAL dimer expressed in CHO cells (human) (UniProt P80188). As to the kind of experiment: … sandwich CMIA, capture 1-2322-455, detection acridinium-1-903-430; curve fit with monomer calibrators; target 1000 ng/mL.
The target of assay [24] is Wild-type recombinant human NGAL monomer expressed in CHO cells (human) (UniProt P80188). Described as above.
The target in assay [25] is Wild-type recombinant human NGAL dimer expressed in CHO cells (human) (UniProt P80188). Briefly: … sandwich CMIA, capture 1-2322-455, detection acridinium-1-903-430; NGAL Dimer High, 1500 ng/mL dimer calibrator.

Take “anti-NGAL antibody HYB 211-01 from AntibodyShop A/S, Gentofte, Denmark”: the RLUs was 101000 RLUs in [1]; 31500 RLUs in assay [2]; 101000 RLUs in assay [3]; 151000 RLUs in [4]; 101000 RLUs in [5]; 31500 RLUs in assay [6]. In addition, the RLUs turned out to be 101000 RLUs in [7], 11400 RLUs in assay [13], 4050 RLUs in [14] and 12000 RLUs in [15]. Further, the results for the % Increase due to DTT in [8] and in assay [9] were 277% and 229%, respectively. For the same molecule, the Curve Fit Results in [10] turned out to be 236 ng/mL; in assay [11], 71.8 ng/mL; in assay [12], 251 ng/mL.

B1: antibody produced by murine hybridoma cell line 1-2322-455 having ATCC Accession No. PTA-8024 (antibody, V domains shown)
VH: EVQLVESGGGLVQPGGSLKLSCAASGFTFNNYYMSWVRQTPERRLEWVAYISSSGGSTYYSDSVRGRFTISRDTARNTLYLQMTSLKSEDTAMYYCARHFGDYSYFDYWGQGTTLTVSS
VL: DIQMTQSPASLSASVGETVTITCRASENFYSYLAWYQQKQGKSPQLLVYNAKTLAEGVPSRFSGSGSGTQFSLKINSLQPEDFGTYYCQHHYDIPLTFGAGTKLELKR
On to B1, for which the RLUs in [16] is 132000 RLUs; in assay [19], 336000 RLUs; in assay [20], 900000 RLUs. Besides, the Curve Fit Results is 292 ng/mL in assay [17]; 266 ng/mL in [18]; 48.6 ng/mL in [21]; 2.2 ng/mL in assay [22]; 294 ng/mL in assay [23]; 1010 ng/mL in assay [24]. Further, the NGAL concentration detected in [25] turned out to be 309 ng/mL.
